Assay results from US20200079833A1 (AstraZeneca / MedImmune, published 2020).
Starred links: 1 amine or outer side, 2 acyl side, 3 side chain; linkers in the order of their positions; H or OH if unused. Non-standard residues stand in square brackets, D forms with d. Groups on a side chain read outwards from the residue. Primed or numbered codes have the meaning given here. No end group written: not given here. *: point of attachment. γGlu = O=C(O)[C@H](CCC(=O)[*:2])N[*:1]; Stearoyl = CCCCCCCCCCCCCCCCCC(=O)*; αMeF = C[C@](N)(Cc1ccccc1)C(=O)O; αMeK = C[C@](N)(CCCCN)C(=O)O; Lauroyl = CCCCCCCCCCCC(=O)*; αMeS = C[C@](N)(CO)C(=O)O; PEG2′ = not defined here; Aib = CC(C)(N)C(=O)O; Ahx = NCCCCCC(=O)O

T1: glucose-dependent insulinotropic peptide (gastric inhibitory polypeptide) receptor (GIPR) (human, UniProt P48546 22-466)
T1 sequence (looked up): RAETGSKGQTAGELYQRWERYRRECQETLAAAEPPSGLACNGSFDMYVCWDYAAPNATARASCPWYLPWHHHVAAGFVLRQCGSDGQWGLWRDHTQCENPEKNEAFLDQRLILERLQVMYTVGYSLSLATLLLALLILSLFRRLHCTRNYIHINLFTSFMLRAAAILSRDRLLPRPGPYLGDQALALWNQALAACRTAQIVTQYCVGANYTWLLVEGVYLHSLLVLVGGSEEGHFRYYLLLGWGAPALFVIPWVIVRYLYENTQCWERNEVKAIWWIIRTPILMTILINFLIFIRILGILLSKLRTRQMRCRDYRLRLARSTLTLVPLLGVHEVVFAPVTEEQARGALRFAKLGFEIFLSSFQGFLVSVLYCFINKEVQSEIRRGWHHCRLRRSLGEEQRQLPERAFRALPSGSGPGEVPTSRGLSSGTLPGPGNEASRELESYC


Tests used:
Assay in all cases: cell-based or functional assay
[1] = target: T1, glucose-dependent insulinotropic …
glucagon receptor (GCGR) = glucagon receptor (GCGR) (human, UniProt P47871 26-477)
GLP-1 receptor (GLP-1R) = GLP-1 receptor (GLP-1R) (human, UniProt P43220 24-463)

Sequence of glucagon receptor (GCGR) (P47871 26-477): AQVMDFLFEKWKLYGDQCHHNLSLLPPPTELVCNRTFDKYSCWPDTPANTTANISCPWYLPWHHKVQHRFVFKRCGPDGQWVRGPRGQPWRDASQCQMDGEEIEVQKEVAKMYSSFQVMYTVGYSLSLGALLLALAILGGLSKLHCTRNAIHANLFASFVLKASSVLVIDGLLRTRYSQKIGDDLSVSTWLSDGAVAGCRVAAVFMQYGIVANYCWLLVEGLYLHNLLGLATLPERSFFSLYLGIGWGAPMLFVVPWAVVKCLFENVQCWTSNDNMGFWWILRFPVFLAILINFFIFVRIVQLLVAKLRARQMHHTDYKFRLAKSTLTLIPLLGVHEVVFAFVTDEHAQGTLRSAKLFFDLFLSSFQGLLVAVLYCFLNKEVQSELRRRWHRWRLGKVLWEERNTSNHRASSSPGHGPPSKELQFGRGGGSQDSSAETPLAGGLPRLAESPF

Binder | Primary assay EC50 (cAMP), GIP-R, first run [1] | Primary assay EC50 (cAMP), GIP-R, second run [1] | Primary assay EC50 (cAMP), Gluc-R, first run (glucagon receptor (GCGR)) | Primary assay EC50 (cAMP), Gluc-R, second run (glucagon receptor (GCGR)) | Primary assay EC50 (cAMP), GLP-1R n1 (GLP-1 receptor (GLP-1R)) | Primary assay EC50 (cAMP), GLP-1R n2 (GLP-1 receptor (GLP-1R)) | Primary assay EC50 (cAMP), Mean pM GLP-1R (GLP-1 receptor (GLP-1R))
H[Aib]EGS[αMeF]TSDV[αMeS]S[αMeF]LEGEAAK([PEG2′-Stearoyl])E[αMeF]IA[αMeF]VV[αMeK]GG-NH2 [SEQ ID NO 161] | 27 nM | 27 nM | 27 nM | 27 nM | 0.16 nM | 0.062 nM | 112 pM
H[Aib]EGS[αMeF]TSDV[αMeS]S[αMeF]LEGEAA[αMeK]E[αMeF]IA[αMeF]VVK([γGlu-γGlu-γGlu-Lauroyl])GG-NH2 (N-terminus assumed; SMILES CCCCCCCCCCCC(=O)N[C@@H](CCC(=O)N[C@@H](CCC(=O)N[C@@H](CCC(=O)NCCCC[C@H](NC(=O)[C@@H](NC(=O)[C@@H](NC(=O)[C@](C)(Cc1ccccc1)NC(=O)[C@H](C)NC(=O)[C@@H](NC(=O)[C@](C)(Cc1ccccc1)NC(=O)[C@H](CCC(=O)O)NC(=O)[C@](C)(CCCCN)NC(=O)[C@H](C)NC(=O)[C@H](C)NC(=O)[C@H](CCC(=O)O)NC(=O)CNC(=O)[C@H](CCC(=O)O)NC(=O)[C@H](CC(C)C)NC(=O)[C@](C)(Cc1ccccc1)NC(=O)[C@H](CO)NC(=O)[C@](C)(CO)NC(=O)[C@@H](NC(=O)[C@H](CC(=O)O)NC(=O)[C@H](CO)NC(=O)[C@@H](NC(=O)[C@](C)(Cc1ccccc1)NC(=O)[C@H](CO)NC(=O)CNC(=O)[C@H](CCC(=O)O)NC(=O)C(C)(C)NC(=O)[C@@H](N)Cc1c[nH]cn1)[C@@H](C)O)C(C)C)[C@@H](C)CC)C(C)C)C(C)C)C(=O)NCC(=O)NCC(N)=O)C(=O)O)C(=O)O)C(=O)O) [SEQ ID NO 166] | 26 nM | 26 nM | 26 nM | 26 nM | 0.0072 nM | 0.0027 nM | 4.9 pM
H[Aib]EGS[αMeF]TSDV[αMeS]S[αMeF]LEGEAA[αMeK]E[αMeF]IA[αMeF]VVK([Ahx-Lauroyl])GG-NH2 (N-terminus assumed; SMILES CCCCCCCCCCCC(=O)NCCCCCC(=O)NCCCC[C@H](NC(=O)[C@@H](NC(=O)[C@@H](NC(=O)[C@](C)(Cc1ccccc1)NC(=O)[C@H](C)NC(=O)[C@@H](NC(=O)[C@](C)(Cc1ccccc1)NC(=O)[C@H](CCC(=O)O)NC(=O)[C@](C)(CCCCN)NC(=O)[C@H](C)NC(=O)[C@H](C)NC(=O)[C@H](CCC(=O)O)NC(=O)CNC(=O)[C@H](CCC(=O)O)NC(=O)[C@H](CC(C)C)NC(=O)[C@](C)(Cc1ccccc1)NC(=O)[C@H](CO)NC(=O)[C@](C)(CO)NC(=O)[C@@H](NC(=O)[C@H](CC(=O)O)NC(=O)[C@H](CO)NC(=O)[C@@H](NC(=O)[C@](C)(Cc1ccccc1)NC(=O)[C@H](CO)NC(=O)CNC(=O)[C@H](CCC(=O)O)NC(=O)C(C)(C)NC(=O)[C@@H](N)Cc1c[nH]cn1)[C@@H](C)O)C(C)C)[C@@H](C)CC)C(C)C)C(C)C)C(=O)NCC(=O)NCC(N)=O) [SEQ ID NO 167] | 29 nM | 29 nM | 29 nM | 29 nM | 0.013 nM | 0.0069 nM | 10 pM
H[Aib]EGS[αMeF]TSDV[αMeS]S[αMeF]LEGEAAK([Ahx-Ahx-Ahx-Stearoyl])E[αMeF]IA[αMeF]VV[αMeK]GG-NH2 (N-terminus assumed; SMILES CCCCCCCCCCCCCCCCCC(=O)NCCCCCC(=O)NCCCCCC(=O)NCCCCCC(=O)NCCCC[C@H](NC(=O)[C@H](C)NC(=O)[C@H](C)NC(=O)[C@H](CCC(=O)O)NC(=O)CNC(=O)[C@H](CCC(=O)O)NC(=O)[C@H](CC(C)C)NC(=O)[C@](C)(Cc1ccccc1)NC(=O)[C@H](CO)NC(=O)[C@](C)(CO)NC(=O)[C@@H](NC(=O)[C@H](CC(=O)O)NC(=O)[C@H](CO)NC(=O)[C@@H](NC(=O)[C@](C)(Cc1ccccc1)NC(=O)[C@H](CO)NC(=O)CNC(=O)[C@H](CCC(=O)O)NC(=O)C(C)(C)NC(=O)[C@@H](N)Cc1c[nH]cn1)[C@@H](C)O)C(C)C)C(=O)N[C@@H](CCC(=O)O)C(=O)N[C@@](C)(Cc1ccccc1)C(=O)N[C@H](C(=O)N[C@@H](C)C(=O)N[C@@](C)(Cc1ccccc1)C(=O)N[C@H](C(=O)N[C@H](C(=O)N[C@@](C)(CCCCN)C(=O)NCC(=O)NCC(N)=O)C(C)C)C(C)C)[C@@H](C)CC) [SEQ ID NO 160] | 26 nM | 26 nM | 26 nM | 26 nM | 0.39 nM | 0.32 nM | 350 pM
H[Aib]EGS[αMeF]TSDV[αMeS]S[αMeF]LEGEAAK([PEG2′-PEG2′-PEG2′-Stearoyl])E[αMeF]IA[αMeF]VV[αMeK]GG-NH2 [SEQ ID NO 163] | 25 nM | 25 nM | 25 nM | 25 nM | 0.063 nM | 0.049 nM | 56 pM
H[Aib]EGS[αMeF]TSDV[αMeS]S[αMeF]LEGEAA[αMeK]E[αMeF]IA[αMeF]VVK([γGlu-γGlu-Lauroyl])GG-NH2 (N-terminus assumed; SMILES CCCCCCCCCCCC(=O)N[C@@H](CCC(=O)N[C@@H](CCC(=O)NCCCC[C@H](NC(=O)[C@@H](NC(=O)[C@@H](NC(=O)[C@](C)(Cc1ccccc1)NC(=O)[C@H](C)NC(=O)[C@@H](NC(=O)[C@](C)(Cc1ccccc1)NC(=O)[C@H](CCC(=O)O)NC(=O)[C@](C)(CCCCN)NC(=O)[C@H](C)NC(=O)[C@H](C)NC(=O)[C@H](CCC(=O)O)NC(=O)CNC(=O)[C@H](CCC(=O)O)NC(=O)[C@H](CC(C)C)NC(=O)[C@](C)(Cc1ccccc1)NC(=O)[C@H](CO)NC(=O)[C@](C)(CO)NC(=O)[C@@H](NC(=O)[C@H](CC(=O)O)NC(=O)[C@H](CO)NC(=O)[C@@H](NC(=O)[C@](C)(Cc1ccccc1)NC(=O)[C@H](CO)NC(=O)CNC(=O)[C@H](CCC(=O)O)NC(=O)C(C)(C)NC(=O)[C@@H](N)Cc1c[nH]cn1)[C@@H](C)O)C(C)C)[C@@H](C)CC)C(C)C)C(C)C)C(=O)NCC(=O)NCC(N)=O)C(=O)O)C(=O)O) [SEQ ID NO 165] | 27 nM | 27 nM | 27 nM | 27 nM | 0.014 nM | 0.006 nM | 10.2 pM
H[Aib]EGS[αMeF]TSDV[αMeS]S[αMeF]LEGEAAK([PEG2′-PEG2′-Stearoyl])E[αMeF]IA[αMeF]VV[αMeK]GG-NH2 [SEQ ID NO 162] | 26 nM | 26 nM | 26 nM | 26 nM | 0.053 nM | 0.055 nM | 54 pM
H[Aib]EGS[αMeF]TSDV[αMeS]S[αMeF]LEGEAA[αMeK]E[αMeF]IA[αMeF]VVK([γGlu-Lauroyl])GG-NH2 (N-terminus assumed; SMILES CCCCCCCCCCCC(=O)N[C@@H](CCC(=O)NCCCC[C@H](NC(=O)[C@@H](NC(=O)[C@@H](NC(=O)[C@](C)(Cc1ccccc1)NC(=O)[C@H](C)NC(=O)[C@@H](NC(=O)[C@](C)(Cc1ccccc1)NC(=O)[C@H](CCC(=O)O)NC(=O)[C@](C)(CCCCN)NC(=O)[C@H](C)NC(=O)[C@H](C)NC(=O)[C@H](CCC(=O)O)NC(=O)CNC(=O)[C@H](CCC(=O)O)NC(=O)[C@H](CC(C)C)NC(=O)[C@](C)(Cc1ccccc1)NC(=O)[C@H](CO)NC(=O)[C@](C)(CO)NC(=O)[C@@H](NC(=O)[C@H](CC(=O)O)NC(=O)[C@H](CO)NC(=O)[C@@H](NC(=O)[C@](C)(Cc1ccccc1)NC(=O)[C@H](CO)NC(=O)CNC(=O)[C@H](CCC(=O)O)NC(=O)C(C)(C)NC(=O)[C@@H](N)Cc1c[nH]cn1)[C@@H](C)O)C(C)C)[C@@H](C)CC)C(C)C)C(C)C)C(=O)NCC(=O)NCC(N)=O)C(=O)O) [SEQ ID NO 164] | 28 nM | 28 nM | 28 nM | 28 nM | 0.022 nM | 0.0078 nM | 14.6 pM
